No end group written: not given here. *: point of attachment. methylmercury = [CH3][Hg]*
Key:
[1] = Particle size and polydispersity by dynamic light scattering (Litesizer 500); type: physicochemical; details: for Hydrodynamic Diameter / Polydispersity: colloids produced by the amphipathic sequence in soy oil
Method: (§1) Encapsulation studies-Winterized Soybean oil (Archer Daniel Midlands, Chicago, IL) 50 μL was added to 2 mg of dry peptide and vortexed for 2 min. Deionized distilled-reverse osmosis (DDI-RO) water was added to a final volume of 1 mL. This mixture was sonicated (bath sonicator) for 15 min at 37° C. The generated CAPC are maintained at RT for at least 1 h prior to confocal microscopy. For the solvent/oil encapsulation study reagent grade-Benzene (Sigma-Aldrich, St. Louis, MO), Cyclohexane (Acros Organics, Geel, Belgium), n-Decane (grade 99+%, Sigma-Aldrich, St. Louis), Migloyl® 812N; capric triglyceride (Pharma Grade, IOI Oleo GmbH, Witten, Germany), and Mineral oil paraffin (USP, Thermo-Fisher Scientific, Waltham, MA) and Winterized Soy oil (Archer Daniel Midlands, Chicago, IL) were used. […] prepared using 50 μL of the solvent/oil along with 480 μL of DDI-RO water were sonicated for 15 min. CAPC, 2 mg, was subsequently added and sonicated for 10 min. These samples were measured 24 h thereafter for their size, Zeta potential and their circular dichroism (CD) spectra recorded. Particle size/Zeta potential-The samples were analyzed using a LitesizerTM 500 Particle Size Analyzer (Anton Paar GmbH, Graz, Austria) using an Omega Cuvette at 25° C. The size distribution of the particles was analyzed with the proprietary KalliopeTM v.2.16 software (Anton Paar GmbH, Graz, Austria) using the intensity-weighing model. For the Zeta potential analysis, the suspension used above was diluted to 5-fold in DDI-RO prior to analysis.

[2] = Zeta potential analysis (Litesizer 500); type: physicochemical
Method: as §1

[3] = colloids produced by the amphipathic sequence in soy oil

Row | Substance | Hydrodynamic Diameter [1] | Polydispersity [1] | Zeta Potential [2, 3] | average (mean) diameter ([1]; peptide complexed with soy oil droplets, DLS intensity peak) | Zeta Potential ([2]; peptide complexed with soy oil droplets)
1 | Ac-FLIVI-KKKKK-C-Me-Hg (Ac-FLIVIKKKKKC(methylmercury)) | 578 ± 96.0 nm | 25 ± 5.8% | 33 ± 4.0 mV |  | 
2 | Ac-FLIVIGSII-KKKKK-CONH2 (Ac-FLIVIGSIIKKKKK-NH2) [Ac-FLIVIGSII-KKKKKCONH2] | 300 nm | 23% | 21 mV |  | 
3 | Ac-FLIVI-KKKKK-CO-NH2 (Ac-FLIVIKKKKK-NH2) [Ac-FLIVI-KKKKK-CONH2] | 560 nm | 20% | 38 mV | 465 nm | 44.8 mV
4 | Ac-IVFLI-KKKKK-CONH2 (Ac-IVFLIKKKKK-NH2) | 594 nm | 25% | 25 mV |  | 
5 | Ac-FLLLL-KKKKK-CONH2 (Ac-FLLLLKKKKK-NH2) | 666 nm | 200% | −0.6 mV |  | 
6 | 5(6)-Ac-FLIVI-KKKKK- C-CF (Ac-FLIVIKKKKKC; also: 5(6)-carboxyfluorescein label (C-CF), attachment not given here) | 766 ± 225.0 nm | 21 ± 4.8% | 25 ± 2.7 mV |  | 
7 | Ac-FAAAA-KKKKK-CONH2 (Ac-FAAAAKKKKK-NH2) [oligo-alanine peptide] | 681 nm | 500% | 10.2 mV |  | 

Source: patent US20250339382A1, “CORRALLING AMPHIPATHIC PEPTIDE COLLOIDS” (KANSAS STATE UNIVERSITY RESEARCH FOUNDATION, priority 2022, published 2025)
